Positions count from the first letter of the chain named.
B1: anti-CDH17 recombinant antibody 10E11 (human IgG1) (antibody, V domains shown)
VH: EVQLVQSGTEVKKPGESLKISCKDSGYRFSSYWIGWVRQMPGKGLEWMGIIYPGDSDTRYSPSFQGQVTISADKSISTAYLQWRSLKASDTAMYYCARRGWVNYFDYWGQGTLVTVSS
VL: DIQMTQSPSSVSASVGDRVTITCRASQGISNWLGWYQQKPGKAPKLLIYAASSLQSGVPSRFSGSGSGTDFTLTISSLQPEDFATYYCQQANSFPLTFGGGTKVEIKR
B2: anti-CDH17 recombinant antibody 15A4 (human IgG1) (antibody, V domains shown)
VH: QVQLVESGGGVVQPGRSLRLSCAASGFNFSSYGMHWVRQAPGKGLEWVAFVWYDGSNQNYADSVKGRFTISRDNSNNTLYLQMNSLRAEDTAVYYCARDRYSSGWDVFDYWGQGTLVTVSS
VL: B1 VL with N31S, G34A, Y49F, D70G, N92K, L96P, G100Q
B3: anti-CDH17 recombinant antibody 17F3 (human IgG1) (antibody, V domains shown)
VH: EVQLVESGGGLVKSGGSLRLSCAASGFTFSSYSLKWVRQAPGKGLEWVSSISSSSGYIYYADSVKGRFTISRDNAKNSLYLQMNSLRAEDTAMYYCARAVSTIAARPGYYYYYMDVWGKGTLVTVSS
VL: B1 VL with V15I, G28D, N31T, L33F, G34A, S53T, Q55R, S76N
B4: anti-CDH17 recombinant antibody 1H10 (human IgG1) (antibody, V domains shown)
VH: B2 VH with A23V, N28T, A49T, V51I, Q58K, N76K, Y80N, A88V
VL: B1 VL with G28D, N31S, G34A, K39Q, L47Q, N92K, L96P, G100Q
B5: anti-CDH17 recombinant antibody 4F9 (human IgG1) (antibody, V domains shown)
VH: QVQLQESGPGLVKPSGTLSLTCAVSGGSISSSNWWSWVRQPPGKGLEWIGEIYHSGSTSYNPSLKSRVTISVDKSKNQFSLKLSSVTAADTAVYYCARNDWGFPLDCWGQGTLVTVSS
VL: DIQMTQSPSSLSASVGDRVTITCRASQSISSYLNWYQQKPGKAPKLLIYAASSLQSGVPSRFSGSGSGTHFTLTISSLQPEDFATYYCQQSHNIPITFGQGTRLEIKR
B6: anti-CDH17 recombinant antibody 13C7 (human IgG1) (antibody, V domains shown)
VH: QITLKESGPTLVKPTQTLTLTCTFSGFSLSTSGVGVGWIRQPPGKALEWLALIYWNDDKRYRPSLKNRLTITKDTSKNQVVLTMTNMDPVDTATYYCTHYGVTAPFYNWFDPWGQGTLVTVSS
VL: DIQMTQSPSSLSASVGDRVTITCRASQSITSYLNWYQQKPGKAPKLLIYAASSLQSGVPSRFSGSGSGTDFTLTISSLQPEDFATYYCQRSYSTLTFGGGTKVEIKR
B7: anti-CDH17 recombinant antibody 19C7 (human IgG1) (antibody, V domains shown)
VH: B6 VH with F27I, S32G, A51S, R62S, N67S, T75S, T98A, Y100S, V102L, T103A
VL: B6 VL with T30S, S31N, Q38L, K42N, Y49F, Y87F
B8: anti-CDH17 recombinant antibody 2F9 (human IgG1) (antibody, V domains shown)
VH: EVQLVESGGGVVRPGGSLRLSCAASGFTFDDYGMSWVRQAPGKGLEWVSGLSWNGGNTYYADSVKGRFTISRDNAKNSLYLQMNSLRAEDTALYYCARGSRYNWNYDAFDIWGQGTLVTVSS
VL: DIQMTQSPSSLSASIGDRVTITCRASQGIRNALGWYQQKPGKAPKRLIYAASNLQSGVPSRFSGSGSGTEFTLTISSLQPEDFATYYCLQHNSYPFTFGPGTKVEIKR
B9: anti-CDH17 recombinant antibody 9E2 (human IgG1) (antibody, V domains shown)
VH: B8 VH with D31N, L51I, S52N, N57S, K65R, N105S
VL: B8 VL with I15V, I29V, N53S
B10: anti-CDH17 recombinant antibody 14B12 (human IgG1) (antibody, V domains shown)
VH: QVQLQESGPGLVKPSETLSLTCTVSGGSINTYYRSWIRQPPGKGLEWIGYIYYSGNTNYNPSLKSRVTISADTSKNQFSLNLISVTAADTAMYYCARAQYGEEAFDIWGQGTLVTVSS
VL: DIQMTQSPSSLSASVGDRVTITCRASQSITTYLNWYQQKPGKAPQLLIFAASRLQTGVPSRFSGSGSGTDFTLTISSLLPGDFATYYCQQSYNTPPTFGGGTKVEIKR

What follows are binders tested against human CDH17 as originally expressed in cells (AsPC1, GP2d) (human, UniProt Q12864 23-832) (assay: cell-based or functional assay).

Binder	IC50 of indirect killing assay to evaluate the internalization of recombinant anti-CDH17 antibodies into AsPC1 cells
B1	0.08 nM
B2	1.99 nM
B3	0.08 nM
B4	0.19 nM
B5	0.29 nM
B6	0.09 nM
B7	0.09 nM
B8	0.14 nM
B9	0.15 nM
B10	0.09 nM

The binders below were run against cynomolgus CDH17-His tag (Acro Biosystems, catalog number CA7-C52H4) (cynomolgus) (assay: Octet BLI, antibody on AHC biosensor, His-tagged antigen 200 nM to 3.1 nM).

Binder	Kd	koff	kon
B1	15 nM	0.0012 s⁻¹	80000 M⁻¹ s⁻¹
B10	2.5 nM	–	620000 M⁻¹ s⁻¹
